Measured values reported in paper PMC6816099, “The finger loop of the SRA domain in the E3 ligase UHRF1 is a regulator of ubiquitin targeting and is required for the maintenance of DNA methylation”.

Legend:
[1] = biological target: UHRF1 SRA SUVH5 finger swap (/ A. thaliana finger loop) (UniProt Q96T88); assay: fluorescence polarization; details: 0.05% NP-40, 10 nM FAM-DNA (temperature not stated), ITC: 25 mM HEPES, 1 mM DTT, 25 C
UHRF1 SRA (WT) = biological target: T1, UHRF1 SRA (WT) (UniProt Q96T88 414-616); assay: ITC; 35 uM protein in cell, 430 uM DNA in syringe; n 0.5-1.0; FP: 25 mM HEPES pH 7.5, 100 mM NaCl, 0.05% NP-40, 10 nM FAM-DNA (temperature not stated); ITC: 25 mM HEPES, 100 mM NaCl, 1 mM DTT, 25 C; details: protein: recombinant; tags: N-terminal His6-MBP (retained); blunt
T1 sequence: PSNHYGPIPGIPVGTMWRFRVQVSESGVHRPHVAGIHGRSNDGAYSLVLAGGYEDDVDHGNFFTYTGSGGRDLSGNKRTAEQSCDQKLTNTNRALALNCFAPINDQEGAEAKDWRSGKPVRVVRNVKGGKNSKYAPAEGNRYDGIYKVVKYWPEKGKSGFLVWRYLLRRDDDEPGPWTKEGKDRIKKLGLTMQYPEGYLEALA

Chain of UHRF1 SRA SUVH5 finger swap (/ A. thaliana finger loop) (Q96T88 whole entry): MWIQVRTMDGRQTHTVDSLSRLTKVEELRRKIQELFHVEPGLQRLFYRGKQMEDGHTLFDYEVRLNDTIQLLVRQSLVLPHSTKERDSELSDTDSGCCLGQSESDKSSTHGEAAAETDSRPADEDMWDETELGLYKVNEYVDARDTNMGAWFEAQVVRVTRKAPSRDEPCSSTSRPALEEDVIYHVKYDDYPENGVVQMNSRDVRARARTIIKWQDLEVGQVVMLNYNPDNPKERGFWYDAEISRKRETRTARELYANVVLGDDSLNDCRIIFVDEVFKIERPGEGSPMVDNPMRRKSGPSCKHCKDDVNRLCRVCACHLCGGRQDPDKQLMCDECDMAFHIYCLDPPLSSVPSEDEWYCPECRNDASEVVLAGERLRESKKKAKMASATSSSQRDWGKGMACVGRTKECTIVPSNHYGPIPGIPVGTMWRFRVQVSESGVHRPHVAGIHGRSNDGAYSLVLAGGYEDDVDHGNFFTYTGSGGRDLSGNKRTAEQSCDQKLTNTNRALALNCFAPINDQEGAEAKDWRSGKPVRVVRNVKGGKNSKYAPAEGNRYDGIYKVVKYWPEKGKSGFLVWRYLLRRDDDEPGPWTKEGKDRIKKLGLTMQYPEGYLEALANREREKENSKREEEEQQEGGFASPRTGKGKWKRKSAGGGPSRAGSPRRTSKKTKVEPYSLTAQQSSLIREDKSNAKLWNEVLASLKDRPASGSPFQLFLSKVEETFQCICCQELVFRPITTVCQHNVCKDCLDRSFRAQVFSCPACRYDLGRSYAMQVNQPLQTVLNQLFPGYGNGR

Molecule: CCATGCGCTGAC (double strand) [Sy5mC]
- Kd ([1]; 5mC at position 6 of strand 1 and position 6 of strand 2, FP: 25 mM HEPES pH 7.5, 100 mM NaCl): 200 nM

Molecule: CCATGCGCTGAC (double strand) [UnDNA]
- Kd ([1]; FP: 25 mM HEPES pH 7.5, 100 mM NaCl): 200 nM

Molecule: CCATGCGCTGAC (double strand) [He5mC (FAM)]
- Kd ([1]; 5mC at position 6 of strand 1, FP: 25 mM HEPES pH 7.5, 100 mM NaCl): 200 nM

B1: He5mC (unlabelled, ITC) (dsDNA)
DNA 1: CCATGCGCTGAC
DNA 2: GTCAGCGCATGG
modifications: 5mC at position 6 of strand 1
- binding result (UHRF1 SRA (WT)): binds
